According to patent US20200199241A1 (Chugai, published 2020):
Positions count from the first letter of the chain named. Numbers in names are those of the source. Where two headings read alike, the source gives them in different places.

B1: VH3/L(WT)-IgG1-F140 (VH3-IgG1-F140 heavy chain, L(WT)-CK light chain) (antibody)
heavy: QVQLQESGPGLVKPSETLSLTCAVSGHSISHDHAWSWVRQPPGEGLEWIGFISYSGITNYNPSLQGRVTISRDNSKNTLYLQMNSLRAEDTAVYYCARSLARTTAMDYWGEGTLVTVSSASTKGPSVFPLAPSSKSTSGGTAALGCLVKDYFPEPVTVSWNSGALTSGVHTFPAVLQSSGLYSLSSVVTVPSSSLGTQTYICNVNHKPSNTKVDKKVEPKSCDKTHTCPPCPAPELLGGPKVFLFPPKPKDTLYISRTPEVTCVVVDVSHEDPEVKFNWYVDGVEVHNAKTKPREEQYNSTYRVVSVLTPLHQDWLNGKEYKCKVSNKALPAPIEKTISKAKGQPREPQVYTLPPSRDELTKNQVSLTCLVKGFYPSDIAVEWESNGQPENNYKTTPPVLDSDGSFFLYSKLTVDKSRWQQGNVFSCSVMHEALHYHYTQKSLSLSP
light: not shown
notes: S239K/M252Y/V308P/N434Y; copies: 2 + 2
B2: antibody with VH3-IgG1-F157 heavy chain and L(WT)-CK light chain (antibody)
heavy: B1 heavy with K241S, Y254M, P259A, M430L
light: not shown
notes: P257A/V308P/M428L/N434Y; also called 1gG1-F157; copies: 2 + 2
B3: VH3/L(WT)-IgG1-F699 (antibody, name in EU numbering)
heavy: B1 heavy with N288E, T309Q, P310V, Q313A
light: not shown
notes: copies: 2 + 2
B4: VH3/L(WT)-IgG1-F763 (antibody, name in EU numbering)
heavy: B1 heavy with L237R, N288E, T309Q, P310V, Q313A
light: not shown
notes: copies: 2 + 2
B5: IL6R-G1d/IL6R-L (antibody, human IgG1)
heavy: not shown
light: DIQMTQSPSSLSASVGDRVTITCRASQDISSYLNWYQQKPGKAPKLLIYYTSRLHSGVPSRFSGSGSGTDFTFTISSLQPEDIATYYCQQGNTLPYTFGQGTKVEIK
notes: anti-human IL-6 receptor, G1d constant region; copies: 2 + 2
B6: IL6R-G1d_v2/IL6R-L (antibody, human IgG1)
heavy: not shown
light: B5 light
notes: L328E (EU numbering) in IL6R-G1d; also called IgG1-v2; copies: 2 + 2
B7: IL6R-G1d_v3/IL6R-L (antibody, human IgG1)
heavy: not shown
light: B5 light
notes: S267E/L328F (EU numbering) in IL6R-G1d; also called IgG1-v3; copies: 2 + 2
B8: IL6R-G1d_v1/IL6R-L (antibody, human IgG1)
heavy: not shown
light: B5 light
notes: P238D (EU numbering) in IL6R-G1d; also called IgG1-v1; copies: 2 + 2

Tests used:
[1] = biological target: T1, human FcRn (soluble human FcRn complexed with β2-microglobulin) (human, UniProt P61769 21-119, limits assumed); assay: SPR, antibody captured by Protein L, human FcRn as analyte, pH 7.0, 25 C
T1 construct: also called hFcRn

[2] = biological target: T2, human FcγRIa (human, UniProt P12314 16-292, limits assumed); assay: SPR, antibody captured by Protein L, human FcγR as analyte, pH 7.4, 25 C
T2 construct: also called hFcgRIa; hFcgRI

[3] = biological target: T1, human FcRn (soluble human FcRn …); assay: SPR, antibody captured by Protein L, human FcRn as analyte, pH 7.0, 25 C; remark: listed apart in the source
[4] = biological target: T3, mouse FcγRIII (mouse, UniProt P08508 31-215); assay: SPR, antibody captured by Protein L, mouse FcγR as analyte, pH 7.4, 25 C
T3 construct: bought; also called mFcgRIII; mFcgR III
T3 sequence (looked up): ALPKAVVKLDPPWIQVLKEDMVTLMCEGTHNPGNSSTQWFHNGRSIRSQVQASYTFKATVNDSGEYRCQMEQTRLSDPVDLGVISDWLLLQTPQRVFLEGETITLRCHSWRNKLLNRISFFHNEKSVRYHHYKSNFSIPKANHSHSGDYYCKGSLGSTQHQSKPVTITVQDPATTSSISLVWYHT

[5] = biological target: T4, mouse FcγRIIb (mouse, UniProt P08101 30-207, limits assumed); assay: as above
T4 construct: bought; also called mFcgRIIb; mFcgR IIb
T4 sequence (looked up): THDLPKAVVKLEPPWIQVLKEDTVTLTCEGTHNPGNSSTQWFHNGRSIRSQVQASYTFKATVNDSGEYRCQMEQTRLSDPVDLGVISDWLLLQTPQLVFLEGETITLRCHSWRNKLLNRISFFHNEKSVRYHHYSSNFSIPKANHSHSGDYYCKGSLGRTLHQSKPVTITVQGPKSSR

[6] = biological target: T5, mouse FcγRIV (mouse, UniProt A0A0B4J1G0 21-203); assay: as above
T5 construct: bought; also called mFcgRIV; mFcgR IV; the vendor's purification tag not given
T5 sequence: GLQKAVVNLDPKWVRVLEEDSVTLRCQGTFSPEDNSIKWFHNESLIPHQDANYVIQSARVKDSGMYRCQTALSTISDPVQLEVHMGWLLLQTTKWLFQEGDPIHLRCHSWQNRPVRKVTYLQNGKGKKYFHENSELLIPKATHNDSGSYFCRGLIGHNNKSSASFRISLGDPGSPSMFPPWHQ

[7] = biological target: T6, mouse FcγRI (mouse, UniProt P26151 25-297); assay: as above
T6 construct: bought; also called mFcgRI; mFcgR 1
T6 sequence (looked up): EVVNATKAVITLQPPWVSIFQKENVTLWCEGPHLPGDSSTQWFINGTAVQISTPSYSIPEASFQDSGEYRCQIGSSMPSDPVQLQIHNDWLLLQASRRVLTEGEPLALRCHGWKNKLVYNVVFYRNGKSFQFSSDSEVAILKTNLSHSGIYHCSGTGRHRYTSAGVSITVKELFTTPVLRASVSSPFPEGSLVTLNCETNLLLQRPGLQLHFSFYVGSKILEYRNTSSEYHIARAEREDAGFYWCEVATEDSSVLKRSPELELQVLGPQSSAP

[8] = biological target: T7, human FcγRIIb (human, UniProt P31994 43-217, limits assumed); assay: SPR, antibody captured by Protein L, human FcγR as analyte, pH 7.4, 25 C
T7 construct: also called hFcgRIIb; FcγIIB
T7 sequence: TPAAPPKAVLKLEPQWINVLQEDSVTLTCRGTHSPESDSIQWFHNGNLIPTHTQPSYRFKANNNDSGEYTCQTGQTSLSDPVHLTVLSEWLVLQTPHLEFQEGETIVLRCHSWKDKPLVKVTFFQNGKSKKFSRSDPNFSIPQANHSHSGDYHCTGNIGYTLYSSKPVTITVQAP

[9] = biological target: T2, human FcγRIa; assay: as above; remark: listed apart in the source
[10] = biological target: T1, human FcRn (soluble human FcRn …); assay: SPR, antibody captured by Protein L, human FcRn as analyte, pH 7.0, 25 C; remark: listed apart in the source
[11] = biological target: T8, human FcγRIIa(H) (human, UniProt P12318 36-217); assay: SPR, antibody captured by Protein L, human FcγR as analyte, pH 7.4, 25 C
T8 construct: also called hFcgRIIa(H); FcγRIIa type H
T8 sequence: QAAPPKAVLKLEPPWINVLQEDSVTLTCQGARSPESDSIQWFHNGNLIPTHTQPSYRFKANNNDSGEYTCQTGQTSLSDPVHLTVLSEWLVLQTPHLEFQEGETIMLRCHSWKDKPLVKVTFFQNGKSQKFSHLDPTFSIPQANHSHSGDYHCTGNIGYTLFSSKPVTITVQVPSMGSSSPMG

[12] = biological target: T7, human FcγRIIb; assay: as above; remark: listed apart in the source
[13] = biological target: T9, human FcγRIIa(R) (human, UniProt P12318 36-217); assay: as above
T9 construct: also called hFcgRIIa(R); FcγRIIa type R
T9 chain: T8 sequence with H133R

[14] = biological target: T2, human FcγRIa; assay: as above; remark: listed apart in the source
[15] = biological target: T1, human FcRn (soluble human FcRn …); assay: SPR, antibody captured by Protein L, human FcRn as analyte, pH 7.0, 25 C; remark: listed apart in the source
[16] = biological target: T10, human FcγRIIa(H) (human, UniProt P12318 36-217); assay: SPR, antibody captured by Protein A, FcγR analyte, 1:1 Langmuir fit
T10 construct: also called FcgRIIaH; hFcgRIIa(H)
T10 sequence: T8 sequence

[17] = biological target: T11, human FcγRIIb (human, UniProt P31994 43-217, limits assumed); assay: as above
T11 construct: also called FcgRIIb; hFcgRIIb
T11 sequence: T7 sequence

[18] = biological target: T12, human FcγRIa (human, UniProt P12314 16-292, limits assumed); assay: as above
T12 construct: also called FcgRIa; hFcgRIa

[19] = biological target: T13, human FcγRIIa(R) (human, UniProt P12318 36-217); assay: as above
T13 construct: also called FcgRIIaR; hFcgRIIa(R)
T13 chain: T8 sequence with H133R

[20] = biological target: T10, human FcγRIIa(H); assay: SPR
[21] = biological target: T11, human FcγRIIb; assay: SPR
[22] = biological target: T12, human FcγRIa; assay: SPR
[23] = biological target: T13, human FcγRIIa(R); assay: SPR
[24] = biological target: T10, human FcγRIIa(H); assay: SPR, antibody captured by Protein A, FcγR analyte; * calculated with Equation 5

T1 sequence (chain, as listed by the source limits assumed, chain 1 of 2): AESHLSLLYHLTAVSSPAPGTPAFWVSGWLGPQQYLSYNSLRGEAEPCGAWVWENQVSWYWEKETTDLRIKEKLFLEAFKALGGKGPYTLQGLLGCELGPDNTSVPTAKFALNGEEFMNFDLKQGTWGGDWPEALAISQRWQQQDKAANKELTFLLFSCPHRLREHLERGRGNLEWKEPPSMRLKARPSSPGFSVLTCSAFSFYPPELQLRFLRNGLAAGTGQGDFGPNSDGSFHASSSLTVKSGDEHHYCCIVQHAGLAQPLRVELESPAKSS
T1 sequence (P61769 21-119 limits assumed, chain 2 of 2): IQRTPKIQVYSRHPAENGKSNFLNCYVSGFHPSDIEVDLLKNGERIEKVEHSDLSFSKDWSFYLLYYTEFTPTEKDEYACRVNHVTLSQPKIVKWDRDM

Row | Binder | Kd [17] | Kd [18] | Kd [19] | relative KD (KD of IgG1/KD of variant) [20] | relative KD (KD of IgG1/KD of variant) [21] | relative KD (KD of IgG1/KD of variant) [22] | relative KD (KD of IgG1/KD of variant) [23] | also measured
1 | B1 |  |  |  |  |  |  |  | Kd [1]: 36 nM; BINDING AMOUNT (RU) [2]: 335 RU; Kd [3]: 36 nM; BINDING AMOUNT (RU) [4]: 46.6 RU; BINDING AMOUNT (RU) [5]: -1.8 RU; BINDING AMOUNT (RU) [6]: 108 RU
2 | B2 |  |  |  |  |  |  |  | Kd [3]: 150 nM; BINDING AMOUNT (RU) [4]: 276 RU; BINDING AMOUNT (RU) [5]: 129 RU; BINDING AMOUNT (RU) [6]: 243 RU; BINDING AMOUNT (RU) [7]: 315 RU
3 | B3 |  |  |  |  |  |  |  | BINDING AMOUNT (RU) [8]: -0.3 RU; BINDING AMOUNT (RU) [9]: 164 RU; Kd [10]: 23 nM
4 | B4 |  |  |  |  |  |  |  | BINDING AMOUNT (RU) [11]: -0.8 RU; BINDING AMOUNT (RU) [12]: -1 RU; BINDING AMOUNT (RU) [13]: -1 RU; BINDING AMOUNT (RU) [14]: -0.4 RU; Kd [15]: 35 nM
5 | B5 | 5300 nM | 0.34 nM | 1200 nM |  |  |  |  | Kd [16]: 770 nM
6 | B6 | 2300 nM | 0.46 nM | 2900 nM | 0.064 fold | 2.3 fold | 0.74 fold | 0.41 fold | Kd [24]: 12000 nM
7 | B7 | 13 nM | 0.19 nM | 2.3 nM | 0.51 fold | 408 fold | 1.8 fold | 522 fold | Kd [16]: 1500 nM
8 | B8 | 1100 nM | 7.3 nM | 12000 nM | 0.014 fold | 4.8 fold | 0.047 fold | 0.1 fold | Kd [24]: 56000 nM
